# Measured values taken from paper PMC6338969, “Aptamer Conformation Switching-Induced Two-Stage Amplification for Fluorescent Detection of Proteins”.
# How the values were obtained:
# [1] = molecular target: prostate-specific antigen (PSA) (UniProt P07288 25-261); experiment: molecular beacon fluorescence with amplification; 0.1 mg/mL PSA; Aptamer + protein 15 min at 37 °C, then NEB buffer (pH 7.9) with Klenow exo- buffer, 37 °C, 2 h; 1 uM aptamer, 1 uM beacon, 2.5 uM primer, 2 mM dNTPs, Klenow exo- and Nt.BbvCI 1 U/uL each; salt not stated; conditions: protein: commercial; Y-shaped complex with target
# Sequence of prostate-specific antigen (PSA) (P07288 25-261): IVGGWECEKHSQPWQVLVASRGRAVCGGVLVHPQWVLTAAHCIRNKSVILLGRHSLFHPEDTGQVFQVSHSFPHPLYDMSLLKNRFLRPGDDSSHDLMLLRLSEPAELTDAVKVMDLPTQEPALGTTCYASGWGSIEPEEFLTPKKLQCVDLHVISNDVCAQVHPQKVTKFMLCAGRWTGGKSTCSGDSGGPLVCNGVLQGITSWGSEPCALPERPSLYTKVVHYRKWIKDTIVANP
# [2] = molecular target: carcino-embryonic antigen (CEA) (UniProt P06731 35-685); experiment: molecular beacon fluorescence with amplification; 0.1 mg/mL CEA; Aptamer + protein 15 min at 37 °C, then NEB buffer (pH 7.9) with Klenow exo- buffer, 37 °C, 2 h; 1 uM aptamer, 1 uM beacon, 2.5 uM primer, 2 mM dNTPs, Klenow exo- and Nt.BbvCI 1 U/uL each; salt not stated; conditions: protein: commercial; Y-shaped complex with target
# Sequence of carcino-embryonic antigen (CEA) (P06731 35-685): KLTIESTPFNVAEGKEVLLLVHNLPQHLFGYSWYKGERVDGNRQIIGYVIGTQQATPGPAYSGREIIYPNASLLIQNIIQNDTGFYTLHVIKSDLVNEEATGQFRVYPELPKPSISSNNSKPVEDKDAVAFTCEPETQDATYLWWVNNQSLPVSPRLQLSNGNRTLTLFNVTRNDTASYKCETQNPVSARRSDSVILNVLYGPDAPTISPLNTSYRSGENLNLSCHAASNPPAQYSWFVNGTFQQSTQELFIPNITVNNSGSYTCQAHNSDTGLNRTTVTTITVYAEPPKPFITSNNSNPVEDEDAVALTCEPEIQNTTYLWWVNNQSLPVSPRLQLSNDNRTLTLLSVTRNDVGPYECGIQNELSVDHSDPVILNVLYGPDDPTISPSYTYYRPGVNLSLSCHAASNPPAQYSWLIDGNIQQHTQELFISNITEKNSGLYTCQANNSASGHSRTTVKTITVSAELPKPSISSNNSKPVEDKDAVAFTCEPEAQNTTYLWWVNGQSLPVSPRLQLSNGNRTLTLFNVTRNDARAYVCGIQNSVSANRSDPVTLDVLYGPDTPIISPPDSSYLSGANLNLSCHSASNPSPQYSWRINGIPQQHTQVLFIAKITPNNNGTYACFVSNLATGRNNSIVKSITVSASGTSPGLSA
# PDGF-BB = PDGF-BB (UniProt P01127 82-190); experiment: molecular beacon fluorescence with amplification; 1.0 ug/mL PDGF-BB; Aptamer + protein 15 min at 37 °C, then NEB buffer (pH 7.9) with Klenow exo- buffer, 37 °C, 2 h; 1 uM aptamer, 1 uM beacon, 2.5 uM primer, 2 mM dNTPs, Klenow exo- and Nt.BbvCI 1 U/uL each; salt not stated; conditions: protein: commercial; chain copies: 2
# Sequence of PDGF-BB (P01127 82-190): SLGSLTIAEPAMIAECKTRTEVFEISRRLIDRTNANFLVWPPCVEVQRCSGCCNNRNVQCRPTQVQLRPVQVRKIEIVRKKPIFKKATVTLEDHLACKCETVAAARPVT
Binder,binding result [1],binding result [2],binding result (PDGF-BB)
PDGF-BB DNA aptamer (switch) (structured_DNA) DNA: TGCACCTCAGCAGCAGGCTACGGCACGTAGAGCATCACCATGATCCTGCATCCGAGCAGGAACG,no binding,no binding,
Control DNA aptamer (ssDNA) DNA: TGCACCTCAGCATTTCCGTGGTAGGGCAGGTTGGGGTGATTTCTATTCAATCCGAGCAGGAACG,,,no binding
